In US20180119166A1:

Molecular target: 6x-histidine-fused LOS4 (LOS4-His) (Arabidopsis) (UniProt Q93ZG7)
Assay: cell-based or functional assay

6x-histidine-fused LOS4 (LOS4-His) (Arabidopsis), sequence (Q93ZG7 other isoform, or with tags, fused parts or gaps limits assumed): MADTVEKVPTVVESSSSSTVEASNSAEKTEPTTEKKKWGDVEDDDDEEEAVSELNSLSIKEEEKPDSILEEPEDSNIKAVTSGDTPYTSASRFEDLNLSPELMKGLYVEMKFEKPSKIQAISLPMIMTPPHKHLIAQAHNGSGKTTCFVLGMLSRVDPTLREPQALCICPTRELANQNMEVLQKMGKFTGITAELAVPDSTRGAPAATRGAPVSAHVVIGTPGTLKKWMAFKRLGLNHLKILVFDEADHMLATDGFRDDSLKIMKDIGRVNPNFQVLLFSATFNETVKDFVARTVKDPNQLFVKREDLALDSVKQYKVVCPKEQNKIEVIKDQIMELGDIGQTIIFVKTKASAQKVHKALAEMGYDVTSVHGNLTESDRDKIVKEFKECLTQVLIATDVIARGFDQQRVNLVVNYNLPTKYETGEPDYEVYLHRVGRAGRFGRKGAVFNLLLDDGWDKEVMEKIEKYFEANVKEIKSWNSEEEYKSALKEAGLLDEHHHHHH

Row | Substance | LOS4 ATPase activity with RNA (LOS4-His and MBP-Gle1C at a ratio of 1:2) [fold] | fold decrease in LOS4-stimulating activity against MBP-Gle1C, absence of InsP6 [fold]
1 | MBP fusion protein of the carboxyl-terminal domain of Gle1 (MBP-Gle1C; amino acid residues 244-611) (from UniProt Q0WPZ7 244-611) | 3 | 
2 | MBP-Gle1C (ID) (from UniProt Q0WPZ7 244-611) |  | > 2
